Assay results from patent US20050019833A1, “Proteins capable of binding to environmental hormones and process for producing the same” (priority 2002, published 2005).

What was measured:
[1] = indirect competitive ELISA, nonylphenoxyacetic acid standard solution; assay type: binding; conditions: FIG. 5; cross-reactivity (%)=[IC50 of NP10EO/IC50 of test compound]x100
Description: (§1) A nonylphenoldecaethoxylate (NPLOEO) standard solution was used in (A), a nonylphenoxyacetic acid (NPLEC) standard solution was used in (B), and a nonylphenol (NP) standard solution was used in (C).
(§2) Moreover, a nonylphenoldecaethoxylate (NPLOEO) standard solution was used in (A) and (B), a nonylphenoxyacetic acid (NPLEC) standard solution was used in (C) and (D) and a nonylphenol (NP) standard solution was used in (E) and (F).
(§3) A conjugate (5 μg/mL) of hapten and bovine serum albumin (BSA) (100 μL/each well) was added to a 96-well microtiter plate and stood at 4° C. overnight. After removing the liquid from the well, 300 μL of Block Ace (purchased from Dainippon Pharmaceutical Co., Ltd.) 4-fold diluted with distillated water was added to each well and stood at 4° C. overnight. After removing the liquid from the well, a standard solution (50 μL) of nonylphenol decaethoxylate stepwise diluted with phosphate buffer (10 mM sodium phosphate (purchased from Nacalai Tesque, Inc.), 150 mM NaCl, pH 7.2) was added to each well. […] The mixture was incubated at 25° C. for 1 hr and each well was washed 4 times with a phosphate buffer. Then, 100 μL of mouse anti-HSV tagged antibody (purchased from Amersham Pharmacia Biotech), diluted with a phosphate buffer to 0.1 μg/mL, was added to each well and the mixture was incubated at 25° C. for 1 hr. […] The absorbance at wavelength of 450 nm was measured.

[2] = indirect competitive ELISA, nonylphenol standard solution; assay type: binding; conditions: FIG. 5; cross-reactivity (%)=[IC50 of NP10EO/IC50 of test compound]x100
Description: as §1, §2, §3

Molecule | cross-reactivity with NP1EC [1] | cross-reactivity with NP [2]
anti-alkylphenol monoclonal antibody: monoclonal antibody (IgG2b, kappa) produced by mouse hybridoma AP-14 (FERM BP-6633) (antibody, V domains shown, Mouse) VH: QVQLQQSAAELARPGASVKMSCKASGYRFTRYTMHWVKQRPGQGLEWIGNINPSSGDTEYNQKFKDKTTLTADKSSTTAYMQLSSLTSEDSAVYYCATPIFYYGSRYVRYEMDYWGQGTSVTVSS VL: DIVMTQAAFSNPVTLGTSTSISCRSTKSLLHSNGITYLYWYLQKPGQSPQLLIYQMSNLASGVPDRFSSSGSGTDFTLRISRVEAEDVGVYYCAQNLELPYTFGGGTKLEIKR | shows cross-reactivity | shows cross-reactivity
anti-alkylphenolethoxylate monoclonal antibody: monoclonal antibody (IgG1, kappa) produced by mouse hybridoma MOF3-139 (FERM BP-6059) (antibody, V domains shown, Mouse) VH: QVQLQQSGAELMKPGASVKISCKVTGYTFRSYWIEWVKQRPGHGLEWIGEILVGSGSTKYNEKFKGKATITAQTSSNTVYMQLSSLTSEDSAVYYCARPFFGSRYDYSDFWGQGTTLTVSS VL: DIVMTQAAFSNPVTLGSSASISCRSSKSLLHRNGITYLYWYLQKPGQSPQVLIYQMSNLASGVPDRFSSSGSGTDFTLRISRVEAEDVGVYYCAQNLELPYTFGGGTKLEIKR | hardly shows cross-reactivity | hardly shows cross-reactivity
